These results are taken from a protein production outcome set (Wang et al. 2014).

This data set is described as follows: label from the status in PepcDB records.
On to “MVGQVIRKRGAYPEYTVEDVLAVIFLLKEPLGRKQISERLELGEGSVRTLLRKLSHLDIIRSKQRGHFLTLKGKEIRDKLLSMFSEPIGVSVDGYPGIAIVVKNPPEFKSIELRDEAIKFDAKGAMILTVKDNEIVFPEDFRPLKEMYPEVAKKIVDYEDGDAVIITWAETPAKALKSAIHVAYILKKEEITPEILEVVK”, for which the protein production result is recorded as “not failed”.
As for “MSRSVPDRWNMHKPMLCDSLPTASRTAAAILNLAQREDVTAEALAQLIQTDPALTGRILRFANAPAQGTRRPVASVIDAIDLVGLPAVRQFALSLSLIDAHREGRCEAFDYAAYWQKSLARAVALQSITAQASTVAPKEAFTLGLLADVGRLALATAWPEEYSECLRKADGEALIALERERFATDHDELTRMLLTDWGFPQVFIDALQLSQQDEIRDEGRTGRFARQLALAQHIADHRLAEEPRRAALSPLLRAEARRCGLGDEDLARLLADPPADWLDWTRTIGLPGDAPTGGAEPSRPPPQTDEKLHVLLADDDPIMLARLSRQLEADGHHVASRRDGETALAYALEHQPEMVITDWHMKPMNGLELCRALRESALGGNVYIVMLTASESEDALVEAFGAGIDDYVIKPPSVRVLKARIRAGQRIITLHKKLARERKEIERYSSELAAANRRLELMAHTDQLTGLPNRRYAMDRLEREWAQARTFDRPLSIMMLDLDWFKSINDSLGHDAGDQALVHAARVMRETVRTSDVVCRMGGEEFLIIIPDTAGPAAIQTAERVRSAVEQQQPAKLKLSRPLTASIGVADSTSAPSLKDLLLKADNALYQVKQNGRNGVRYAGLLEHHHHHH”, the protein production entry is “not failed”.
As for “MDVFSEILNGIGRLLLQPALYVGIILVIIAGFNRVKWERKSFSISIYSPWLELKNFFGVSLLFGLVLSIITTLIGFSVMIEWIAIFNAVACFLLIVGMFRLSSTAFTIGITSLIFYFCYYFDVNLSPFTNLEFTYDAIFIDNFMISMTFLLAILLFVEAFLIQYTSAKNPSPSLRKSKRGKLVGSFQLRKLWFVPLVVFIPGDVFTKIFEWWPVFTIGSESYSLIILPLFIGFQQQVQAQLPEEASKKIAVQVTTLATIIAVAGLIGIVMPVLTLFAFMFAVIGRFWISYRHYRSEQLLPKKFGPQPDGLVVLGARESTPSTRLNLKAGEKITEVNGQKVHNREELYEALNLNRAFCKLKVIDNAGEPRFEQTALYENESFELGLLLVEPR”, the protein production result is “failed”.
As for “MHKKTVILIIFAILGGVMGAAYFTRAWLVMGITSRLVNNIIVNILLGAIIFLILGSLFAGVLVRLINRIEAYLNRQNPMTLIFGSLLTIVGLALALLISQFLFRVPSFFIGTVIPWILMILFGYFGYRIGARLSKIRLEEWRKLFQSRSKKAEEETDKQVLDKETEPNFHHYKILDTNILIDGRIYDLAKTGFLEGTLLVPNFVLYELQYIADSSDSVKRVRGRRGLDILNKLQNEHIMPIEMYEGDFEDIPEVDSKLIALAKQNGGVIVTNDYNLNKVIQFQNVQVLNINSLANALKPRVIPGENLHVMVVKNGTERQQGVAYLDDGTMVVVEDGRYFINKQLDVVVTSAIQTDAGRMIFAKPLHSNKNIEEQANAGKEGKGSNSAKPTKRSR”, the entry is “failed”; as for “MSQSSKARLSTDPTVFEAVLNNHTPMMQQYLRIKAQHPDMLMFYRMGDFYELFFDDAEKAAKLLDITLTRRGTSAGEPIKMAGVPYHAAEQYLAKLVKLGESVVICEQVGDPATSKGPVERQVTRIITPGTLTDAALLEDKRDSALLALLVHESTLGLAWLNLAAGQFSVMETSVNNLTAELERLKPAEILLPESLNLAGINDRVIQEKLCVKHLPAWQFDTAAAVRNLSRQFGTHDLSGFGCEDLDVSLGAASALLDYTRLTQGASIGHIKGLRVEREDTYLRMDATTRRNLEISETIRGDAAPTLLSLLDTCSTNMGSRLLCHWLHHPLRDRGLIQNRLNGVSFLMGEAGSGPCLSVRDCLKRVTDIERITARIALKSARPRDLSGLRDSLKRLPAVNNAVAGTATTSSGGSDVSAHVAALIHSMAPDNALVALLEKSLKEEPEVMLRTGGVIADGYDAELDELRAIHNNCDEFLLQLETREKARTGIANLKVEYNRLHGFYIEVTHAHTEKIPDDYRRRQTLKNAERYITPELKAFEEKALSAQSRALEREKLLYGELLDMLSQYIDHLQQVARSVAELDVLATFAERALALDYSLPLFTSDSVIEIQAGRHPVVEKQVDSFIANDVQLGARTGGRRQMLVITGPNMGGKSTYMRQVALIALLAHCGSFVPARSALIGPLDQLFTRIGASDDLAGGRSTFMMEMTEAANILHNATAQSLVLMDEVGRGTSTFDGLALAFAIARYLLEKNRSYTLFATHYFELTRLAEEFAQVANVHLRAVEHKHHIVFLHAVNEGPASQSYGLQVAALAGVPDPVIRTARRYLLKLEQEALSNQPQGDLFSRDDLFWKQDRMPEGSVDKNDSAPEHPVLALLRTIVPDDLSPKQALEQLYGLKKAAEKE”, “failed”.
The result for “MESAPSRLDGDRPRLSVRLLGPLEILRDGVPLALPASRKLRALLAYLALAPHAVGRGRLCELLWDVPNDPRGELRWCLSKLRAALDTPDRRRVTTQGDAVALDLDGCLVDALEISQAAAQGIATLDVERLQGLAGLFAGDLLDGLELERSPHFDSWLVAQRRRFDAYHAAVLEQLAASLPADCDETVSRLDRWIELAPFDTRAHAALLASLARRGEIGAAEQHLASAERLFQSEDLDFAPLRQAWRSIRDQRASHQAQPAGLPTPSHLVAASGDTGPVEPSHASLAVMPFVDESGARGGLADGFTHDIITRLAKLRDFFVIARGSVFALAEKAIAPEEAGRKLGVDYVASGTVRSLTGRLIVSVELVEVRTARIVWAETFERRPHDLFAVLDDIGDSIVSSISAEIETVERNRAMLKAPNSLNAWEAYHRGLWHMYRFTQAENEQARHFFDKALQLDPTFARAYAGLSFTHWQNAFQRWGDRDRESALAYESAGHSLLVDDHNPAAHWAMGRALWLRGEQDGSLAELERAVDLSPNFALGHYALSFVHSQSGDPQAAIGSSDHSRHLSPFDPLLFGMLGSRAMSHVRLGQFEEAAEWALKAAARPNAHTIILAIAAHCLALAGRLDEARGFAAAIRKTLPDYRADDFIGTFRFDPDAEALFRQGARRIGFS” reads “failed”; that for “GAFDAAQLDVAQAYARHLAVSLQQSLLRQRVARLGRVYEVLSRINALVARCHEREELFDGICRVTVEVGTYRMAWVGVIDPETLNGTVVAFRGEDSDYLRQIRLSAKEDSPYRDRPACKAVRQKEIVVCNDVQEDASLKGLAPHLISYGVRSVACLPVMLDGRAFAVLALFAGDVGAFDRQEMGLLRELASDIGFALDHIQKEERLDYLAYYDS”, “failed”.
The result for “SLEPAQANMDISTGHMILAYMEDHLRNRDRLAKEWQALCAYQAEPNTCATAQGEGNIKKNRHPDFLPYDHARIKLKVESSPSRSDYINASPIIEHDPRMPAYIATQGPLSHTIADFWQMVWESGCTVIVMLTPLVEDGVKQCDRYWPDEGASLYHVYEVNLVSEHIWCEDFLVRSFYLKNVQTQETRTLTQFHFLSWPAEGTPASTRPLLDFRRKVNKCYRGRSCPIIVHCSDGAGRTGTYILIDMVLNRMAKGVKEIDIAATLEHVRDQRPGLVRSKDQFEFALTAVAEEVNAILKALPQ” reads “not failed”.
On to “MEGQENKVLFGLENVHYATYSETDGVITYDTPKPLPGGVEISVEPQGDMIKFYADNIVYYQAPNNQGYEGTLTIASIPEGFATDCLGEELDTVDGVLTEKSDAKPKPFALLFEFDGDVKSVRQVLYNCTASRPTVASSTLEHHHHHH”, for which the protein production entry is recorded as “not failed”.
As for “MKFVSIEKDEILIGNMAKLYCKVFEKTNFNEMIERMNRHIEYTGFKGIVAINDENEVVGFTYGYRSMEGQYYNQLMREALHLEQVDEWLQDCFEFVELAVHPQYQNEGLGTKLHNELLEGIPNRTSVLTTQINNEKARSLYERLDWVNVLEPFHPSKNDVPYVIMGKALKTKVN”, the entry is “failed”; as for “MHVSKVFPSLRDTLPRDLMASVVVFLVALPLCMGIAIASGMPPAKGLLTGIVGGLVVGFLAGSPLQVSGPAAGLAVLVFELVRTYGVAMLGPILLLAGAIQLLAGRLRLGCWFRVTSPAVVYGMLAGIGILIVLSQLHVMLDLAPKASGLDNLLAFPQAAFAALGSLGMDSGLDAALLGLGTIAVMWGWDKLRPQRLRFLPGALLGVSLATLASLWLALDVRRVEVPANLGEAIVWLRPADLLALADPSLLLAAVVVAFIASAETLLSAAAVDRLHDGPRSDMDRELSAQGVGNMLCGLLGALPMTGVIVRSSANVNAGARTRASAIFHGLWLLAFVLLLGSLLRQIPVASLAGVLVYTGVKLVDFKALGNLSRYGRMPMLVYAATALAIVFTDLLTGVLVGFALTLLKLVLKAARLKIALRYTGEHEAELRLSGAATFLKVPALSRVLDEVKPGTTLHVPMDNLSYVDHACMELLEDWGRMAPVQGSRLVIEPRALKRRLEGRLRGSVGLGGARNGGAVSPG”, “failed”.
